± gives the standard deviation.
Assay: collision cross section of modified peptide (TIMS, N2, iRT-aligned); higher = larger / more extended gas-phase ion
Outline: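 Collision cross section values rest on the Mason-Schamp equation applied to calibrated, run-aligned mobility data from synthetic peptides. Mobility (1/K0) was calibrated with three reference ions and aligned per run to the median iRT peptide deviation, and 1–3 technical replicates of the most abundant feature per charge state were averaged. Data came from a timsTOF Pro/HT in dda-PASEF mode (nitrogen, ~2.4 mbar) after a 120-min nanoflow C18 gradient at 60 °C.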

[1] = charge state: 2, modification: hydroxyisobutyryl
[2] = charge state: 3, modification: hydroxyisobutyryl
[3] = charge state: 2, modification: Acetyl (K)
[4] = charge state: 3, modification: Acetyl (K)
[5] = charge state: 2, modification: Crotonyl
[6] = charge state: 3, modification: Crotonyl
[7] = charge state: 2, modification: Malonyl
[8] = charge state: 3, modification: Trimethyl (K)
[9] = charge state: 2, modification: Methyl (K)
[10] = charge state: 3, modification: Methyl (K)
[11] = charge state: 2, modification: Biotin
[12] = charge state: 3, modification: Dimethyl (K)
[13] = charge state: 3, modification: Glutarylation
[14] = charge state: 2, modification: Glutarylation
[15] = charge state: 2, modification: Dimethyl (K)
[16] = charge state: 3, modification: Biotin
[17] = charge state: 2, modification: HexNAc (ST)
[18] = charge state: 2, modification: Butyryl
[19] = charge state: 2, modification: Phospho (Y)
[20] = charge state: 2, modification: Formyl
[21] = charge state: 2, modification: Succinyl
[22] = charge state: 2, modification: Propionyl
[23] = charge state: 2, modification: GlyGly (K)
[24] = charge state: 3, modification: GlyGly (K)
[25] = charge state: 2, modification: Citrullination (R)
[26] = charge state: 3, modification: Citrullination (R)
[27] = charge state: 2, modification: Hydroxyproline
[28] = charge state: 3, modification: Hydroxyproline

## GTITVSAQELKDNR [_GTITVSAQELK(hydroxyisobutyryl)DNR_]
[1]
  collision cross section: 423.58 ± 0.3 Å²
[2]
  collision cross section: 485.27 ± 2.8 Å²

## DSSPTTNSKLSALQR [_DSSPTTNSK(Acetyl (K))LSALQR_]
[3]
  collision cross section: 430.6 ± 0.81 Å²
[4]
  collision cross section: 495.74 ± 2.2 Å²

## GTITVSAQELKDNR [_GTITVSAQELK(Crotonyl)DNR_]
[5]
  collision cross section: 422.36 ± 0.55 Å²
[6]
  collision cross section: 483.09 ± 1.6 Å²

## VNIGQGSHPQKVK [_VNIGQGSHPQK(Malonyl)VK_]
[7]
  collision cross section: 424.04 ± 0.57 Å²

## GTITVSAQELKDNR [_GTITVSAQELK(Trimethyl (K))DNR_]
Charge state: 2, modification: Trimethyl (K)
  collision cross section: 442.48 ± 1 Å²
[8]
  collision cross section: 479.04 ± 1.8 Å²

## ITLSKHQNVQLPR [_ITLSK(Methyl (K))HQNVQLPR_]
[9]
  collision cross section: 432.38 Å²
[10]
  collision cross section: 510.25 ± 21 Å²

## TQDQISNIKYHEEFEK [_TQDQISNIK(Acetyl (K))YHEEFEK_]
[3]
  collision cross section: 481.39 Å²
[4]
  collision cross section: 555.65 ± 0.58 Å²

## ITESVAETAQTIKK [_ITESVAETAQTIK(Biotin)K_]
[11]
  collision cross section: 443.04 ± 1.4 Å²

## DFDTALKHYDK [_DFDTALK(Dimethyl (K))HYDK_]
[12]
  collision cross section: 452.29 ± 1.2 Å²

## GTITVSAQELKDNR [_GTITVSAQELK(Acetyl (K))DNR_]
[3]
  collision cross section: 415.96 ± 1.9 Å²
[4]
  collision cross section: 479.46 ± 0.78 Å²

## ILDLKTGTVK [_ILDLK(Methyl (K))TGTVK_]
[9]
  collision cross section: 356.44 ± 1 Å²

## LQDVSGQLSSSKK [_LQDVSGQLSSSK(Methyl (K))K_]
[9]
  collision cross section: 404.82 ± 1.9 Å²
[10]
  collision cross section: 465.49 ± 8.7 Å²

## TQDQISNIKYHEEFEK [_TQDQISNIK(Gluratylation)YHEEFEK_]
[13]
  collision cross section: 554.46 ± 0.14 Å²

## TQAYQDQKPGTSGLR [_TQAYQDQK(Acetyl (K))PGTSGLR_]
[3]
  collision cross section: 429.11 ± 1.6 Å²
[4]
  collision cross section: 480.53 ± 6.7 Å²

## FGTINIVHPKLGSYTK [_FGTINIVHPK(Trimethyl (K))LGSYTK_]
[8]
  collision cross section: 502.05 ± 2.2 Å²

## KFGVLSDNFK [_K(hydroxyisobutyryl)FGVLSDNFK_]
[1]
  collision cross section: 378.39 ± 0.91 Å²

## LLEQKTQESQK [_LLEQK(Gluratylation)TQESQK_]
[14]
  collision cross section: 402.96 ± 0.5 Å²

## LQDVSGQLSSSKK [_LQDVSGQLSSSK(Dimethyl (K))K_]
[15]
  collision cross section: 407.51 ± 1.1 Å²
[12]
  collision cross section: 466.01 ± 2.4 Å²

## VLTANSNPSSPSAAKR [_VLTANSNPSSPSAAK(Biotin)R_]
[11]
  collision cross section: 443.24 ± 0.79 Å²
[16]
  collision cross section: 547.09 ± 3.1 Å²

## TPNLYIYSKK [_TPNLYIYSK(Dimethyl (K))K_]
[15]
  collision cross section: 376.02 ± 0.46 Å²
[12]
  collision cross section: 432.06 ± 2.8 Å²

## ESISVSSEQLAQFR [_ES(HexNAc (ST))ISVSSEQLAQFR_]
[17]
  collision cross section: 438.25 Å²

## DSINFLDHINGKK [_DSINFLDHINGK(hydroxyisobutyryl)K_]
[2]
  collision cross section: 468.17 ± 2.7 Å²

## VFIGNLNTLVVKK [_VFIGNLNTLVVK(Butyryl)K_]
[18]
  collision cross section: 414.54 ± 0.53 Å²
Charge state: 3, modification: Butyryl
  collision cross section: 490.12 Å²

## TSAYGPPTR [_TSAY(Phospho (Y))GPPTR_]
[19]
  collision cross section: 336.75 ± 0.067 Å²

## IISSIEQKEENK [_IISSIEQK(Formyl)EENK_]
[20]
  collision cross section: 398.84 ± 0.2 Å²

## VNALKNLQVK [_VNALK(hydroxyisobutyryl)NLQVK_]
[1]
  collision cross section: 374.85 ± 0.8 Å²

## SGFGKFER [_SGFGK(Succinyl)FER_]
[21]
  collision cross section: 336.55 ± 1.3 Å²

## VDGDTQTTVEK [_VDGDTQTT(HexNAc (ST))VEK_]
[17]
  collision cross section: 383.53 ± 0.58 Å²

## PSVGSQSNQAGQGKR [_PSVGSQSNQAGQGK(Malonyl)R_]
[7]
  collision cross section: 406.87 ± 1.8 Å²
Charge state: 3, modification: Malonyl
  collision cross section: 446.38 Å²

## LDEKENLSAK [_LDEK(Biotin)ENLSAK_]
[11]
  collision cross section: 382.87 Å²

## VLTANSNPSSPSAAKR [_VLTANSNPSSPSAAK(Propionyl)R_]
[22]
  collision cross section: 429.75 ± 0.38 Å²
Charge state: 3, modification: Propionyl
  collision cross section: 528.16 ± 0.65 Å²

## SLEEEGAAHSGKR [_SLEEEGAAHSGK(Acetyl (K))R_]
[3]
  collision cross section: 412.49 ± 2.4 Å²
[4]
  collision cross section: 476.34 ± 2.4 Å²

## LYDIDVAK [_LY(Phospho (Y))DIDVAK_]
[19]
  collision cross section: 363.27 ± 0.78 Å²

## IINEPTAAAIAYGLDKK [_IINEPTAAAIAYGLDK(GlyGly (K))K_]
[23]
  collision cross section: 510.84 ± 1.5 Å²
[24]
  collision cross section: 560.44 ± 1.9 Å²

## GGGGGRGGLHDFR [_GGGGGR(Citrullination (R))GGLHDFR_]
[25]
  collision cross section: 380.63 ± 2.7 Å²
[26]
  collision cross section: 438.48 ± 1.8 Å²

## TSAVSSQANSQPPVQVSVK [_T(HexNAc (ST))SAVSSQANSQPPVQVSVK_]
Charge state: 3, modification: HexNAc (ST)
  collision cross section: 513.92 Å²

## VGYPGPSGPLGARGIPGIK [_VGYP(Hydroxyproline)GPSGPLGARGIPGIK_]
[27]
  collision cross section: 446.49 ± 1.1 Å²
[28]
  collision cross section: 508.9 ± 31 Å²

## LFVGGIKEDTEEHHLR [_LFVGGIK(Crotonyl)EDTEEHHLR_]
[6]
  collision cross section: 544.97 ± 1.3 Å²

## ISALQGKLSK [_ISALQGK(GlyGly (K))LSK_]
[23]
  collision cross section: 369.61 ± 1 Å²
[24]
  collision cross section: 430.51 ± 2 Å²

## PANEKATDDYHYEK [_PANEK(Gluratylation)ATDDYHYEK_]
[14]
  collision cross section: 448.09 ± 1.5 Å²
[13]
  collision cross section: 511.51 ± 1 Å²

## TTEETSKPK [_TTEETSK(Propionyl)PK_]
[22]
  collision cross section: 342.02 ± 0.39 Å²

## DSSPTTNSKLSALQR [_DSSPTTNSK(Trimethyl (K))LSALQR_]
[8]
  collision cross section: 473.36 ± 2.4 Å²

## SYGIPYIETSAK [_SY(Nitro (Y))GIPYIETSAK_]
Charge state: 2, modification: Nitro (Y)
  collision cross section: 386.26 ± 0.17 Å²

## DLGKFQVATDALK [_DLGK(Methyl (K))FQVATDALK_]
[9]
  collision cross section: 399.05 ± 1.1 Å²
[10]
  collision cross section: 491.01 ± 3.2 Å²

## LEEVTGKLQVAR [_LEEVTGK(Formyl)LQVAR_]
[20]
  collision cross section: 388.92 ± 0.55 Å²

## SLEEEGAAHSGKR [_SLEEEGAAHSGK(Methyl (K))R_]
[9]
  collision cross section: 413.71 ± 2.6 Å²
[10]
  collision cross section: 459.06 ± 3.1 Å²

## ITLSKHQNVQLPR [_ITLSK(Dimethyl (K))HQNVQLPR_]
[12]
  collision cross section: 489.75 ± 1.2 Å²

## AGPNASIISLKSDK [_AGPNASIISLK(Dimethyl (K))SDK_]
[15]
  collision cross section: 413.93 ± 1.1 Å²
[12]
  collision cross section: 484.65 ± 1.6 Å²

## FGRGTGLTQPSQR [_FGR(Methyl (R))GTGLTQPSQR_]
Charge state: 3, modification: Methyl (R)
  collision cross section: 470.4 ± 2.6 Å²

## ASDTSSETVFGKR [_ASDTSSETVFGK(Gluratylation)R_]
[14]
  collision cross section: 400.66 ± 0.51 Å²
[13]
  collision cross section: 483.77 ± 1.7 Å²

## GPKGQQGEPGPK [_GPKGQQGEP(Hydroxyproline)GPK_]
[27]
  collision cross section: 357.43 ± 1.4 Å²
[28]
  collision cross section: 444.16 ± 2 Å²

## GRGGPGPAQR [_GR(Citrullination (R))GGPGPAQR_]
[25]
  collision cross section: 319.56 ± 0.91 Å²

## VNVEAPDVNLEGLGGKLK [_VNVEAPDVNLEGLGGK(Malonyl)LK_]
[7]
  collision cross section: 463.09 ± 1.4 Å²

## VDIDVPDVNIEGPDAKLK [_VDIDVPDVNIEGPDAK(hydroxyisobutyryl)LK_]
[1]
  collision cross section: 489.94 Å²

## PSVGSQSNQAGQGKR [_PSVGSQSNQAGQGK(Succinyl)R_]
[21]
  collision cross section: 415.39 ± 2 Å²
Charge state: 3, modification: Succinyl
  collision cross section: 455.72 ± 2.4 Å²

## VFIGNLNTLVVKKK [_VFIGNLNTLVVK(Acetyl (K))KK_]
[4]
  collision cross section: 507.56 ± 1 Å²

## SKHLQEQLNELK [_SK(Acetyl (K))HLQEQLNELK_]
[3]
  collision cross section: 415.42 ± 1.7 Å²
[4]
  collision cross section: 483.11 ± 1.6 Å²

## SDSGKPYYYNSQTK [_SDSGK(hydroxyisobutyryl)PYYYNSQTK_]
[1]
  collision cross section: 428.74 ± 0.3 Å²
[2]
  collision cross section: 490.1 ± 3.9 Å²

## IQQELQTAKK [_IQQELQTAK(Malonyl)K_]
[7]
  collision cross section: 373.35 ± 6 Å²

## IQQELQTAKK [_IQQELQTAK(Acetyl (K))K_]
[3]
  collision cross section: 374.24 ± 0.38 Å²
[4]
  collision cross section: 435.9 ± 0.91 Å²

## VLDSGAPIKIPVGPETLGR [_VLDSGAPIK(Methyl (K))IPVGPETLGR_]
[10]
  collision cross section: 510.82 ± 2.8 Å²

## VLTANSNPSSPSAAKR [_VLTANSNPSSPSAAK(Crotonyl)R_]
[5]
  collision cross section: 433.68 ± 1.1 Å²
[6]
  collision cross section: 528.16 ± 1.7 Å²

## DLGKFQVATDALK [_DLGK(Butyryl)FQVATDALK_]
[18]
  collision cross section: 411.4 ± 0.85 Å²

## VTRYPILGIPQAHR [_VTR(Citrullination (R))YPILGIPQAHR_]
[26]
  collision cross section: 520.51 ± 0.78 Å²

## ALLQAKASGK [_ALLQAK(Acetyl (K))ASGK_]
[3]
  collision cross section: 343.77 ± 0.2 Å²

## IISSIEQKEENK [_IISSIEQK(Biotin)EENK_]
[11]
  collision cross section: 422.44 ± 3 Å²
[16]
  collision cross section: 481.73 ± 1.6 Å²

## LLEEEDSKLK [_LLEEEDSK(Crotonyl)LK_]
[5]
  collision cross section: 386.83 ± 0.27 Å²
